pKd: −log10 of the molar value.
Experiments:
[1] = biological target: Human CD33-V-HSA (human); experiment: SPRi off-rate screen (IBIS MX96)
[2] = biological target: Human CD33 ECD-HSA (human); experiment: SPRi off-rate screen (IBIS MX96)
[3] = biological target: human CD3 on human T cells (human) (UniProt P07766); experiment: flow cytometry competition on purified human T cells; competitor 2 ug/mL AF488-labelled SP34-2
[4] = biological target: human CD3 on human T cells (human) (UniProt P07766); experiment: saturation binding on human pan T cells, flow cytometry (KdT)

human CD3 on human T cells (human), sequence (P07766 23-207 limits assumed): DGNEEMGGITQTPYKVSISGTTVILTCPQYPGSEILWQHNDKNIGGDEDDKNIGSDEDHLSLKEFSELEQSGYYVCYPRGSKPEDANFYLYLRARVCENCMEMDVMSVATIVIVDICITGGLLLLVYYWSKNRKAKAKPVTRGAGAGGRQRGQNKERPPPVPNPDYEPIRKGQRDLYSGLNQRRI

Substance: WM53 (antibody)
- koff [1]: 0.0378 s⁻¹
- koff [2]: 0.00237 s⁻¹

Substance: SP34-2, commercial mouse anti-human CD3 antibody
- IC50 (read off the curve) [3]: 1 µg/mL
- pKd [4]: 8.25
